Data on one protein can be found in patent US20220056084A1 (CONSEJO SUPERIOR DE INVESTIGACIONES CIENTIFICAS CSIC, published 2022).

This data set concerns the molecule itself. Kind of data set: gel filtration and sedimentation velocity (self-association).

B1: H10-LOV543m3-WH1 (other)
chain: MGSSHHHHHHHHHHSSGLVPRGSLATTLERIEKNFVITDPRLPDNPIIFASDSFLQLTEYSREEILGRNCRFLQGPETDRATVRKIRDAIDNQTEVTVQLINYTKSGKKFWNLFHLQPMRDQKGDVQYFIGVQLDGTEHVRDAAEREAVMEAKKTAENIDEAAKLIESSHTLTLNEKRLVLCAASLIDSRKPLPKDGYLTIRADTFAEVFGIDVKHAYAALDDAATKLFNRDIRRYVKGKVVERMRWVFHVKYREGQGCVELGFSPTIIPHLTMLHKEFTSYQLK
notes: Chimera of Avena sativa LOV2 (G528A, L531E, I532A) and wild-type RepA-WH1; carries the FMN chromophore; Dimer in solution; also called LOV2m3-WH1; LOV543-WH1m3; not shown: N-terminal His10 tag peptide
In the case of B1, the binding result is reported as “binds”.
